According to paper PMC3462610 (Biochemical Journal, 2011):

B1: 1018-C–GST: wild-type WDR62-1018-C fused to GST (protein)
chain: RFATSLPHFPGCAGPTEDELSLPEGPSVPSSSLPQTPEQEKFLRHHFETLTESPCRELFPAALGDVEASEAEDHFFNPRLSISTQFLSSLQKASRFTHTFPPRATQCLVKSPEVKLMDRGGSQPRAGTGYASPDRTHVLAAGKAEETLEAWRPPPPCLTSLASCVPASSVLPTDRNLPTPTSAPTPGLAQGVHAPSTCSYMEATASSRARISRSISLGDSEGPIVATLAQPLRRPSSVGELASLGQELQAITTATTPSLDSEGQEPALRSWGNHEARANLRLTLSSACDGLLQPPVDTQPGVTVPAVSFPAPSPVEESALRLHGSAFRPSLPAPESPGLPAHPSNPQLPEARPGIPGGTASLLEPTSGALGLLQGSPARWSEPWVPVEALPPSPLELSRVGNILHRLQTTFQEALDLYRVLVSSGQVDTGQQQARTELVSTFLWIHSQLEAECLVGTSVAPAQALPSPGPPSPPTLYPLASPDLQALLEHYSELLVQAVRRKARGH
B2: Myc-1018-1284: Myc-tagged WDR62 aa 1018–1284 (protein)
chain: RFATSLPHFPGCAGPTEDELSLPEGPSVPSSSLPQTPEQEKFLRHHFETLTESPCRELFPAALGDVEASEAEDHFFNPRLSISTQFLSSLQKASRFTHTFPPRATQCLVKSPEVKLMDRGGSQPRAGTGYASPDRTHVLAAGKAEETLEAWRPPPPCLTSLASCVPASSVLPTDRNLPTPTSAPTPGLAQGVHAPSTCSYMEATASSRARISRSISLGDSEGPIVATLAQPLRRPSSVGELASLGQELQAITTATTPSLDSEGQEPA
B3: Myc-1212-C: Myc-tagged WDR62 aa 1212–1523 (protein)
chain: PSTCSYMEATASSRARISRSISLGDSEGPIVATLAQPLRRPSSVGELASLGQELQAITTATTPSLDSEGQEPALRSWGNHEARANLRLTLSSACDGLLQPPVDTQPGVTVPAVSFPAPSPVEESALRLHGSAFRPSLPAPESPGLPAHPSNPQLPEARPGIPGGTASLLEPTSGALGLLQGSPARWSEPWVPVEALPPSPLELSRVGNILHRLQTTFQEALDLYRVLVSSGQVDTGQQQARTELVSTFLWIHSQLEAECLVGTSVAPAQALPSPGPPSPPTLYPLASPDLQALLEHYSELLVQAVRRKARGH
B4: Myc-1232-C: Myc-tagged WDR62 aa 1232–1523 (protein)
chain: ISLGDSEGPIVATLAQPLRRPSSVGELASLGQELQAITTATTPSLDSEGQEPALRSWGNHEARANLRLTLSSACDGLLQPPVDTQPGVTVPAVSFPAPSPVEESALRLHGSAFRPSLPAPESPGLPAHPSNPQLPEARPGIPGGTASLLEPTSGALGLLQGSPARWSEPWVPVEALPPSPLELSRVGNILHRLQTTFQEALDLYRVLVSSGQVDTGQQQARTELVSTFLWIHSQLEAECLVGTSVAPAQALPSPGPPSPPTLYPLASPDLQALLEHYSELLVQAVRRKARGH
B5: Myc-1018-CΔD (protein)
chain: RFATSLPHFPGCAGPTEDELSLPEGPSVPSSSLPQTPEQEKFLRHHFETLTESPCRELFPAALGDVEASEAEDHFFNPRLSISTQFLSSLQKASRFTHTFPPRATQCLVKSPEVKLMDRGGSQPRAGTGYASPDRTHVLAAGKAEETLEAWRPPPPCLTSLASCVPASSVLPTDRNLPTPTSAPTPGLAQGVHAPSTCSYMEATASSRARISRSISLGDSEGPIVATLAQPLRRPSSVGELASLGQELQAITTATTPSLDSEGQEPALRSWGNHEASSACDGLLQPPVDTQPGVTVPAVSFPAPSPVEESALRLHGSAFRPSLPAPESPGLPAHPSNPQLPEARPGIPGGTASLLEPTSGALGLLQGSPARWSEPWVPVEALPPSPLELSRVGNILHRLQTTFQEALDLYRVLVSSGQVDTGQQQARTELVSTFLWIHSQLEAECLVGTSVAPAQALPSPGPPSPPTLYPLASPDLQALLEHYSELLVQAVRRKARGH

What was measured:
Type in all cases: binding, human
HA–JNK2 = test: GST pull-down with WDR62 1018-C–GST constructs; settings: HEK-293T, anti-HA/anti-pJNK
HA–JNK1 = test: GST pull-down with WDR62 1018-C–GST constructs; settings: HEK-293T, anti-HA/anti-pJNK
GST–MKK7β1 = test: GST pull-down of WDR62 fragments with GST–MKK7β1; settings: HEK-293T

| Molecule | association with HA–JNK2 (HA–JNK2) | association with HA–JNK1 (HA–JNK1) | association with MKK7β1, in words (GST–MKK7β1) |
| --- | --- | --- | --- |
| B1 | efficiently precipitated | efficiently precipitated | – |
| B2 | – | – | efficiently associated |
| B3 | – | – | efficiently associated |
| B4 | – | – | but not Myc-1232-C |
| B5 | – | – | efficiently precipitated with GST–MKK7β1 |
